{"source": "paper PMC5242468", "binders": {"B1": {"name": "β-Glucuronidase (GusA), P05804 1-603 (enzyme)", "chain": "MLRPVETPTREIKKLDGLWAFSLDRENCGIDQRWWESALQESRAIAVPGSFNDQFADADIRNYAGNVWYQREVFIPKGWAGQRIVLRFDAVTHYGKVWVNNQEVMEHQGGYTPFEADVTPYVIAGKSVRITVCVNNELNWQTIPPGMVITDENGKKKQSYFHDFFNYAGIHRSVMLYTTPNTWVDDITVVTHVAQDCNHASVDWQVVANGDVSVELRDADQQVVATGQGTSGTLQVVNPHLWQPGEGYLYELCVTAKSQTECDIYPLRVGIRSVAVKGEQFLINHKPFYFTGFGRHEDADLRGKGFDNVLMVHDHALMDWIGANSYRTSHYPYAEEMLDWADEHGIVVIDETAAVGFNLSLGIGFEAGNKPKELYSEEAVNGETQQAHLQAIKELIARDKNHPSVVMWSIANEPDTRPQGAREYFAPLAEATRKLDPTRPITCVNVMFCDAHTDTISDLFDVLCLNRYYGWYVQSGDLETAEKVLEKELLAWQEKLHQPIIITEYGVDTLAGLHSMYTDMWSEEYQCAWLDMYHRVFDRVSAVVGEQVWNFADFATSQGILRVGGNKKGIFTRDRKPKSAAFLLQKRWTGMNFGEKPQQGGKQ"}}, "key": {"[1]": {"target": "β-Glucuronidase (GusA) (E. coli MG1655), P05804", "test": "SEC; after 65°C and pH 5 for 20 min (high temperature and acidic pH); data not shown", "details": "remark: other sources report otherwise"}, "[2]": {"target": "β-Glucuronidase (GusA) (E. coli MG1655), P05804", "test": "SEC; gel filtration of the freshly purified enzymes against reference proteins (thyroglobulin, aldolase, albumin, ovalbumin, chymotrypsinogen A); results name a Superose 12 10/300 column, methods name a ZORBAX GF-250 HPLC column, 130 mM NaCl/20 mM Na2HPO4 pH 7.0, 23°C", "details": "remark: other sources report otherwise"}}, "data": [{"binder": "B1", "values": [{"measurement": "stoichiometry N", "setting": "[1]", "value": 4}, {"measurement": "stoichiometry N", "setting": "[2]", "value": 4}]}]}
